GREM1-mCherry uptake into HCT116 cells (integrated mCherry fluorescence per cell) from conditioned medium with 200 ng/ml BMP2 versus vehicle, overnight (16 h) data for one molecule are collected here from PMC12597263.

In this assay the target is T1, recombinant human (rh) BMP2 (human) (UniProt P12643).
T1 sequence: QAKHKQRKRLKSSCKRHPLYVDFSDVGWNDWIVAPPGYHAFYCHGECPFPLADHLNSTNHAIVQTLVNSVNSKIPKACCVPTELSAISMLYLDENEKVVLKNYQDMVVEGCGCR

B1: GREM1^WT-mCherry (human Gremlin1 fused to mCherry) (natural protein)
chain: KKKGSQGAIPPPDKAQHNDSEQTQSPQQPGSRNRGRGQGRGTAMPGEEVLESSQEALHVTERKYLKRDWCKTQPLKQTIHEEGCNSRTIINRFCYGQCNSFYIPRHIRKEEGSFQSCSFCKPKKFTTMMVTLNCPELQPPTKKKRVTRVKQCRCISIDLD
Consider B1, for which the GREM1-mCherry uptake into HCT116 cells (integrated mCherry fluorescence per cell) from conditioned medium with 200 ng/ml BMP2 versus vehicle, overnight (16 h) was 5 fold.
